Several values for one entry are separate records, joined by “and”; a condition that tells them apart may be missing. Identical values can stand only once.
Molecular target: the molecule itself
Test: AUC; sedimentation velocity (SV-AUC); MetA at 10, 20 and 30 µM in 20 mM Tris-Cl pH 7.5, 150 mM NaCl; 40,000 rpm; absorbance at 280 nm; SEDFIT continuous c(s) distribution; monomer, dimer and tetramer peaks, populations unchanged at the three concentrations

B1: homoserine acetyl transferase MetA (Rv3341) of Mycobacterium tuberculosis, recombinant histidine-tagged (enzyme)
chain: MTISDVPTQTLPAEGEIGLIDVGSLQLESGAVIDDVCIAVQRWGKLSPARDNVVVVLHALTGDSHITGPAGPGHPTPGWWDGVAGPGAPIDTTRWCAVATNVLGGCRGSTGPSSLARDGKPWGSRFPLISIRDQVQADVAALAALGITEVAAVVGGSMGGARALEWVVGYPDRVRAGLLLAVGARATADQIGTQTTQIAAIKADPDWQSGDYHETGRAPDAGLRLARRFAHLTYRGEIELDTRFANHNQGNEDPTAGGRYAVQSYLEHQGDKLLSRFDAGSYVILTEALNSHDVGRGRGGVSAALRACPVPVVVGGITSDRLYPLRLQQELADLLPGCAGLRVVESVYGHDGFLVETEAVGELIRQTLGLADREGACRR
notes: also called HSAT; (His)6-Rv3341
- stoichiometry N: 2 and 4

Reference: publication doi:10.1101/2020.09.01.277368 (bioRxiv, 2020)
